# Results as given in IntAct's records for PubMed 31515488.
# B1: Nuclear autoantigen Sp-100 (Homo sapiens), P23497 (parent)
# chain: MAGGGGDLSTRRLNECISPVANEMNHLPAHSHDLQRMFTEDQGVDDRLLYDIVFKHFKRNKVEISNAIKKTFPFLEGLRDRDLITNKMFEDSQDSCRNLVPVQRVVYNVLSELEKTFNLPVLEALFSDVNMQEYPDLIHIYKGFENVIHDKLPLQESEEEEREERSGLQLSLEQGTGENSFRSLTWPPSGSPSHAGTTPPENGLSEHPCETEQINAKRKDTTSDKDDSLGSQQTNEQCAQKAEPTESCEQIAVQVNNGDAGREMPCPLPCDEESPEAELHNHGIQINSCSVRLVDIKKEKPFSNSKVECQAQARTHHNQASDIIVISSEDSEGSTDVDEPLEVFISAPRSEPVINNDNPLESNDEKEGQEATCSRPQIVPEPMDFRKLSTFRESFKKRVIGQDHDFSESSEEEAPAEASSGALRSKHGEKAPMTSRSTSTWRIPSRKRRFSSSDFSDLSNGEELQETCSSSLRRGSGSQPQEPENKKCSCVMCFPKGVPRSQEARTESSQASDMMDTMDVENNSTLEKHSGKRRKKRRHRSKVNGLQRGRKKDRPRKHLTLNNKVQKKRWQQRGRKANTRPLKRRRKRGPRIPKDENINFKQSELPVTCGEVKGTLYKERFKQGTSKKCIQSEDKKWFTPREFEIEGDRGASKNWKLSIRCGGYTLKVLMENKFLPEPPSTRKKRILESHNNTLVDPCEEHKKKNPDASVKFSEFLKKCSETWKTIFAKEKGKFEDMAKADKAHYEREMKTYIPPKGEKKKKFKDPNAPKRPPLAFFLFCSEYRPKIKGEHPGLSIDDVVKKLAGMWNNTAAADKQFYEKKAAKLKEKYKKDIAAYRAKGKPNSAKKRVVKAEKSKKKKEEEEDEEDEQEEENEEDDDK
# partner: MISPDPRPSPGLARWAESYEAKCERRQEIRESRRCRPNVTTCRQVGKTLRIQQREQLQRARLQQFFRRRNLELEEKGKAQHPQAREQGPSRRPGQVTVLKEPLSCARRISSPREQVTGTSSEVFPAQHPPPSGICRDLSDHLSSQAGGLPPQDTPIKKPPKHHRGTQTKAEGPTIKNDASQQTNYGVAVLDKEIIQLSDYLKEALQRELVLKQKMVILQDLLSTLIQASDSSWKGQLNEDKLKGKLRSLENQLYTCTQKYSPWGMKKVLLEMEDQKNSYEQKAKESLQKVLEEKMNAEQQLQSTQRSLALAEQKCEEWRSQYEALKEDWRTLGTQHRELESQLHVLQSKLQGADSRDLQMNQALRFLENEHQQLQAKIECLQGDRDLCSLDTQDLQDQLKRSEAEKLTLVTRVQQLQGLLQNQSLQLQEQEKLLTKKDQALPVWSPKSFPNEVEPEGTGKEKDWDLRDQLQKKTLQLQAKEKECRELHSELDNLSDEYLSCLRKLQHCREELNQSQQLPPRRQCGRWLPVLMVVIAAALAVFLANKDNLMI
# B2: Cyclic AMP-dependent transcription factor ATF-4 (Homo sapiens), P18848 (parent)
# chain: MTEMSFLSSEVLVGDLMSPFDQSGLGAEESLGLLDDYLEVAKHFKPHGFSSDKAKAGSSEWLAVDGLVSPSNNSKEDAFSGTDWMLEKMDLKEFDLDALLGIDDLETMPDDLLTTLDDTCDLFAPLVQETNKQPPQTVNPIGHLPESLTKPDQVAPFTFLQPLPLSPGVLSSTPDHSFSLELGSEVDITEGDRKPDYTAYVAMIPQCIKEEDTPSDNDSGICMSPESYLGSPQHSPSTRGSPNRSLPSPGVLCGSARPKPYDPPGEKMVAAKVKGEKLDKKLKKMEQNKTAATRYRQKKRAEQEALTGECKELEKKNEALKERADSLAKEIQYLKDLIEEVRKARGKKRVP
# partner: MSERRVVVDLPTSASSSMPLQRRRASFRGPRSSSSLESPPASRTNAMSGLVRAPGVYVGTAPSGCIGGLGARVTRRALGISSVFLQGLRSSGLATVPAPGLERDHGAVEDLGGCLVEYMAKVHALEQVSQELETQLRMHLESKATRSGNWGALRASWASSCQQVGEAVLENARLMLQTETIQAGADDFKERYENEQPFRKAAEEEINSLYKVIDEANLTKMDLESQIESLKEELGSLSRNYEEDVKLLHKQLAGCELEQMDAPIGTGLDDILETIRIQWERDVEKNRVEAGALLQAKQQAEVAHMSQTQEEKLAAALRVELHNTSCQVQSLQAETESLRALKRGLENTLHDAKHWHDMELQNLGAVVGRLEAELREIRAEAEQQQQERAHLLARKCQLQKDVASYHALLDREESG
# B3: Tripartite motif-containing protein 10 (Homo sapiens), Q9UDY6 (parent)
# chain: MASAASVTSLADEVNCPICQGTLREPVTIDCGHNFCRACLTRYCEIPGPDLEESPTCPLCKEPFRPGSFRPNWQLANVVENIERLQLVSTLGLGEEDVCQEHGEKIYFFCEDDEMQLCVVCREAGEHATHTMRFLEDAAAPYREQIHKCLKCLRKEREEIQEIQSRENKRMQVLLTQVSTKRQQVISEFAHLRKFLEEQQSILLAQLESQDGDILRQRDEFDLLVAGEICRFSALIEELEEKNERPARELLTDIRSTLIRCETRKCRKPVAVSPELGQRIRDFPQQALPLQREMKMFLEKLCFELDYEPAHISLDPQTSHPKLLLSEDHQRAQFSYKWQNSPDNPQRFDRATCVLAHTGITGGRHTWVVSIDLAHGGSCTVGVVSEDVQRKGELRLRPEEGVWAVRLAWGFVSALGSFPTRLTLKEQPRQVRVSLDYEVGWVTFTNAVTREPIYTFTASFTRKVIPFFGLWGRGSSFSLSS
# Variants of: B1
# Conditions: with TRAF3IP3, Q9Y228
row,Variant,effect of a mutation on the interaction
1,M433V,with no effect

# Variants of: B2
# Conditions: with bfsp2_human BFSP2, Q13515
row,Variant,effect of a mutation on the interaction
1,T137S,with no effect
2,E322D,disrupting interaction strength
3,A324V,with no effect
4,P258A,with no effect

# Variants of: B3
# Conditions: with psa1_human PSMA1, P25786
# psa1_human PSMA1, P25786, sequence (P25786 whole entry): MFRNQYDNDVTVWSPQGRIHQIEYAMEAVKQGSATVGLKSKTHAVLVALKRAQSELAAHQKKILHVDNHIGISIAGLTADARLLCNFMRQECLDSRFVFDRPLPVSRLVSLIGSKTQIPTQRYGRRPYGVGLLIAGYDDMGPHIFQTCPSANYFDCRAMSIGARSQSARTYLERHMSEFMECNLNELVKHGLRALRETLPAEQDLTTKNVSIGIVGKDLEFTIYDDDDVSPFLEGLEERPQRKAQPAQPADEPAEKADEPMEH
row,Variant,effect of a mutation on the interaction
1,R65H,with no effect
